Assays:
[1] = biological target: GST-EnaEVH1 (Drosophila); assay: pull-down; purified proteins; DiaFH1-Cterm and glutathione-Sepharose beads constant, increasing GST-EVH1, 20 min at 25°; supernatants by SDS-PAGE, bound fraction fit to a quadratic equation
[2] = biological target: Mg-ATP-actin (actin filament barbed ends) (UniProt P68135); assay: TIRF microscopy of single actin filaments; Oregon-green-labeled actin with Drosophila profilin and quantum-dot-clustered biotin-SNAP protein, flow cell at 23°C; barbed end residence time from a single exponential fit
[3] = biological target: DiaFH1FH2 (Drosophila)

Q: “DiaFH1-carboxyl-terminus (Cterm) (domain or fragment)” was tested. Which Kd [1] did it give?
A: 13.3 µM

Q: “QD-biotin-SNAP-EnaΔLinker (natural protein)” was tested. Which mean barbed end residence time [2] did it give?
A: 95.2 s

Q: Which concentration of barbed ends nucleated by 10 nM DiaFH1FH2 (from pyrene assays without profilin), 0 to 5.8 μM GST-EnaEVH1 [3] does the source give for GST-EnaEVH1 (domain or fragment) here?
A: 0.27 nM

Source: paper PMC3992947
